This is an account of results in the nanobody polyreactivity screen of Harvey et al. (2022).

A short description of the data set: yeast display, Sf9 membrane polyspecificity reagent, FACS + sequencing; frameworks hold sequencing errors. In a few lines:
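Sorting gates, low and high (top ~1%), were placed on anti-HA fluorescence to track expression and on streptavidin fluorescence to track reagent binding. A clone's polyreactivity label is taken from the gate it came out of. The reagent was 10% biotinylated, detergent-solubilized Sf9 membrane, applied for 1 hour at 4 °C to galactose-induced yeast display cells.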
Take “QVQLLESGGGLVQARGSLRLSCAASGITFSRYAMGWYRQAPGKERELVAAITRRGGNTYYADSVKGSFTISRVYAKNTVYLQMNSLKPEDTAVYYCAAGYTYYRGDYWGQGTQVTVSS”: the “polyreactivity (PSR sort gate)” value is reported as “high polyreactivity”.

For “QVQLLESGGGLVQPGGSLRLSCAASGRIFRHSAMGWYRQAPGKERELVAAISGGGGRTYYADSVKGRFTISRDNAKLSVDLQMNSLKPEDTAVYYCAAYRSRHYYYWGHGTQVTVSS”, the “polyreactivity (PSR sort gate)” value is reported as “high polyreactivity”.

For the sequence “QVQLLESGGGLVQPGGSLRLSCAASGSIFGRNVMGWYRQAPGKERELVAAISSSGGRTYYADSVKGRFTISRDNAKNNVYLQMNCLKPEDTAVYYCADRYGIKYYYWGQGTQVTVSS”, the “polyreactivity (PSR sort gate)” value is on record as “high polyreactivity”.

Consider “QVQLLESGGVLVQAGGSLRLSCAASGFTFWYYAMGWYRQAPGKQRELVATITWNVGSTYYADSVKGRFTISRDNAKNTVYIQMNTLKPEDTAVYYCNKSYSRSSYWQYYYWGQGTQVTVSS”, for which the “polyreactivity (PSR sort gate)” value is given as “low polyreactivity”.

Turning to “QVQLLESGRGLVQAGGTLRLSCAPSGRTFSVNAMGWYRQAPGKERELVAAISWDGGSTYYADSVKVRFTISRDNAKNTVYLQMNSLKQEDTAVYYCNKDLYYAYDYWGQGTQVTVSS”, the “polyreactivity (PSR sort gate)” value was “low polyreactivity”.

On to “QVQLLESGVGKVQAGGRLRLSCAASGSIFLIYAMGWYRQAPGKESELVAAISSGGSKYYADSVNGRFTISRDNAKNTVYLQMNSVKPEDTAVYYCATYSTCVAYHLYYWGQGTQVSVSS”, for which the “polyreactivity (PSR sort gate)” value is given as “low polyreactivity”.

Turning to “QVQLLESWGGLVQAGGSLRLSCAASGRTSTRNAMGWYRQAPGNERELVAAISWSGGRTHYADSVKGRFTISRDNAKNTVYLQMNSLKPEDTAVYYCAAAYTGGQKYYSWGQGTEVTVSS”, the “polyreactivity (PSR sort gate)” value is given as “high polyreactivity”.

For “QVQLLETGGGLVQAGGSLRLSCAASGITFKYYSMGWYRQAPGKERELFATITKRGGSTYYADSVKGRFTISRDNAKNTVYLQMNSLKPVDTAVYYCAAEILIRFWGVQWGGEYWGQGTQVTVSS”, the “polyreactivity (PSR sort gate)” value is “high polyreactivity”.

Regarding “QVQLLETGGVLVQAGGSLRLSCAASGFIFGINAMGWYRQAPGKERELVATITSGGGTNYADSVKGRFTISRDNAKINVYLQMNSLKPEDSAVYYCNAQIAWATYEGDYWGQGTQVTVSS”, the “polyreactivity (PSR sort gate)” value is “low polyreactivity”.

In the case of “QVQLPGSGGGLVQAGGSLRLSCAASGYIFQNVPMGWTRQAPGKERDLVAGIDNGTSTNYADSVNGRFTISRDNAKNTVYLQMNSLKPEDTAVYYCAAAGQADDTLGYWGQGTQVTVSS”, the “polyreactivity (PSR sort gate)” value is recorded as “low polyreactivity”.

In the case of “QVQLQDSGGGLVQAGGSLRLSCAASGSISIYGYMGWYRQAPGNERELVAAITAGGSTYYADSVKGRFTISRDNAKNTVYLLMKSLKPEDTAVYYCAPYEQRVYDLHYWGQGTQVTVSS”, the “polyreactivity (PSR sort gate)” value was “high polyreactivity”.

Turning to “QVQLQDSGGGLVQAGGSLRLSCAASGYIFGSGSMGWFRQAPGKERELVATINNGSSTYYADSVKGRFTISRDNAKNTVYLQMNSLKPEDTAVYYCGVFLYRLTFFYYWGQGNQVTVSS”, the “polyreactivity (PSR sort gate)” value is “high polyreactivity”.

Turning to “QVQLQDSGGGLVQAGGSLRLSCAASGYIFGSGSMGWFRQAPGKERELVATINNGSSTYYADSVKGRFTISRDNAKNTVYLQMNSLKPEDTAVYYCNRVGTYHSYDYWGQGTQVTVSS”, the “polyreactivity (PSR sort gate)” value is given as “high polyreactivity”.

For the sequence “QVQLQDSGGGLVQARGSLRPSCAASGTISDGVPMGWYRQAPGEVRELVATTVLGATTNYADSVKGRFTISRGNAKNTVYLQMNSLKPEETAVYYCAAPLRYDKGFSYWGQGTQVTVSS”, the “polyreactivity (PSR sort gate)” value was “low polyreactivity”.

Regarding “QVQLQECGGGLEQAGGSLRLSCAASGTFSNSVKWLYCQARGKEREFVATIGVGGSTNYADSVKGRFTISRDNAKNTVYLQMNSLKPEDTAVYHCAAYGAASNFHYYRGQGTQVTVSS”, the “polyreactivity (PSR sort gate)” value is listed as “low polyreactivity”.

As to “QVQLQECGGGLVQAGGSLRLSCAASGNIFDADIMGWYRQAPGKERELVASVSDGGSTNYADSVKGRFTISRDNAKNTVYLQMNSLKPEDTAVYYCAAIVYPDILTYFDYDYDYFYWGQGTQVTVGS”, the “polyreactivity (PSR sort gate)” value is given as “low polyreactivity”.

Turning to “QVQLQECGGGLVQAGGSLRLSCAASGNIFDADIMGWYSQAPGKERELVDSVTDGGSTNYADSVKGRFTISRDNAKNTVYLQMNSLKPEHTAVYYCAAIVYPDILTYFDYDYDYFYWGQGTQVTVGS”, the “polyreactivity (PSR sort gate)” value is “low polyreactivity”.

As to “QVQLQEGGGGLVQAGGSLRLSCAASGYISYGDVMGWYRQAPGEERELVASIGLDATTNYADSVKGRFTISRDNAKITVYVQMNSLKPEDTAVYYCAADVGSGVLCGYWGQGTQMTVSS”, the “polyreactivity (PSR sort gate)” value is “high polyreactivity”.

For “QVQLQEIGGGLVQAGGSLRLSCAATGSIFVSVTMGWYRQAPGKERELVASIGRGSTTNHADSVKGRFTISRDNAKNIVYLLMNSLKPEDTAVYYCAALESYGKYHGYWGQGTQVTVSS”, the “polyreactivity (PSR sort gate)” value is listed as “low polyreactivity”.

Take “QVQLQERAAWCRRAGSLLLSCAASGNISDYYFMGWYRQAPAKERELVAAIAPGSNTYYADSVQGRFTISRDNAKKTVYLQMNSLKPEDTAVCFCAANSTQYTWFDDWGQGTQVPVSS”: the “polyreactivity (PSR sort gate)” value is reported as “low polyreactivity”.

Regarding “QVQLQERGGGLVQAGGSLRLSCAASGYISHADEKGWYRQAPGKEHELVASISNGGCTNYADSEKGRFTISRDNAKNTLYLQMNSLKSEDTAVYYCAAWTGQVDIHYYWGQGTQVTVSS”, the “polyreactivity (PSR sort gate)” value is “low polyreactivity”.

With “QVQLQERGGGLVQAGGSLRLSCAASRIIYADGFMGLYRQAPGKEREFVATITGGGTSNYADSVKGLFTISRDNAKNTVYLQMNSQKPEDTAVYYCAVYFAWTIGFTYWGQGTQVTVSS”, the “polyreactivity (PSR sort gate)” value is recorded as “high polyreactivity”.

“QVQLQERGGGLVQTGGSLSLSCEASGTISYSDSMCWYRQAPRKERELVAAIARGGITNYAYSVKGRFTISRDNAKNTVYLQMNSLKPEDTAVYYCADLSSRYAQFDYWGQGTQVTVSS”: the “polyreactivity (PSR sort gate)” value was “low polyreactivity”.

Regarding “QVQLQESAAGLVQAGGGLRLSCPASGTISGPHVMGWYRQSPGKEREFVAAINVGANTYYADNVKGRFTISRDNAKNTVYLQMNSLKPEDTGVYYCAAVYYGDIGHEYWGQGTQVTVSC”, the “polyreactivity (PSR sort gate)” value is reported as “low polyreactivity”.

Take “QVQLQESAGALVQAGGSLRQSYAASGYIFPSLSMGRYRQAPGKEREFVAAIGRGSTNNYADSVKGRFTISRDNANNTAYQQMISLKPEDTAVYYCAAAASQLTRHLYWGQGTQVTVSS”: the “polyreactivity (PSR sort gate)” value was “low polyreactivity”.

Regarding “QVQLQESAGGLVQAGDSQRMSCAASGNSFRFTDMGWYRQAPGKERELVAAINAGSTTYYADSVKGRFTISLDNAKNTVYLQMNSLKPEDTAVYYCAVYYLGSGTFGYWGQGAQVTVSS”, the “polyreactivity (PSR sort gate)” value was “high polyreactivity”.

Regarding “QVQLQESAGGLVQAGGSLSLSCAASGSISRYYDMGWYRQAPGKEREFVAGISGGASTYYADSVKGRFTISRDNAKNTVYLQMNSLKPEDTAVYYCAADTGVYQYHSYWGQGTQVTVSS”, the “polyreactivity (PSR sort gate)” value is listed as “low polyreactivity”.

For the sequence “QVQLQESAGLVQAGGLRLSCAASGSVSYQEAMGWYRQAPGKERELVATMSFGANTNYADSVKVRFTISRDNAKNTVYLQMNSLKPEETAVYYCAAESLFDDYYGYWGQGTQVTVSS”, the “polyreactivity (PSR sort gate)” value is recorded as “low polyreactivity”.

For the sequence “QVQLQESGADLEQAGGSLRLSFTASGTISDVRVMAWYRQAPGKERELVATISYVTITYYADSVKGRFTISRDSEKHRVSADDEPETGRYRGVLLRYYWGLGTQVTVSS”, the “polyreactivity (PSR sort gate)” value is “low polyreactivity”.

As for “QVQLQESGAGLLQAGGCLSCTASGTIFGQGDMGWYRQAPGKERELLATINDGASTYYADSVKGRFTISRDKAKNTVYLKKNSLKPDDTAVDYFAVFTDITNYFGYWGQATQVTVSS”, the “polyreactivity (PSR sort gate)” value is “low polyreactivity”.

On to “QVQLQESGCGLVQEGGSLRPSCAASGSISEGVPMGWSRQAPGEERELVATTVMGATTNYADSVKGRFTISRGNANNTVYLQMISLKPDETAVYYCAAPLRYDKGFSFWGQGTQVTVSS”, for which the “polyreactivity (PSR sort gate)” value was “low polyreactivity”.

In the case of “QVQLQESGCRLVQAGGRLRMSCAASGNIIDADIMGWYRQAPGKERELVASITDGRRTNYADSVKGRYTNSRDSEKNTVYMQMNSLKPEDTAVYYCAAIAYPVVPTYFDYDSDYFHWGQGTQVTVSS”, the “polyreactivity (PSR sort gate)” value was “high polyreactivity”.

In the case of “QVQLQESGDGLVQAVGSLRLSCAASGYISGYYNMGWYRQAPGKERELVAGIDAFGSSTNYADCVKGRFTISRDNAKNTVYLEMNSLKPEDTAVYYFAARPYGDRLFSYWGQGTQVTVSS”, the “polyreactivity (PSR sort gate)” value is “low polyreactivity”.

Take “QVQLQESGGCLVLAGGSLRLSCAASGYIFDTCPMGWYRQAPGKEREFVASIDHGSNTYYADSVKGRFTISRDSAKNTVYLQMNSLKPEDTAVYYCAVRDDGSYTYGNWGQGTQVTVSS”: the “polyreactivity (PSR sort gate)” value was “high polyreactivity”.

For “QVQLQESGGGLEQAGGSLRLSCAASGYISDIGTMGWYRQAPGKEREFVATIVVGSTTNYADSVKGRFTISRDNAKNTVYLKPESGRYRGVLLRGWLLAVGKFTYWGQGTQETVSS”, the “polyreactivity (PSR sort gate)” value is given as “low polyreactivity”.

For “QVQLQESGGGLLQAGGTLRLSCAASGSIFGYSGMGWYRQAPGKERELVAGIDYGTITNYADSVKGRFTISRDNAKNTVYLQKYSLKPADTAVYYCATDIHSVHNHRDKHVYDYWGQGTQVTVSS”, the “polyreactivity (PSR sort gate)” value is “low polyreactivity”.

“QVQLQESGGGLMQAGVSQRLSCAASGSISYYSDMGWYRQAPRKEREFVAGIGYGTTTYYADSVKGRFTTSRDNAKNTVYLQMISMKPEDTAVYYCAAYQGNGYEFYYWGQGTQVTVRS”: the “polyreactivity (PSR sort gate)” value is reported as “low polyreactivity”.

In the case of “QVQLQESGGGLVKAGGSLRLSCAASGNISNHNDMGWYRQAPGKEREFVAGITAGGITNYADSVKGRFTISRDNAKNTGYLQMNSLKPEDTAVYYCAAYPDYAKSYGYWGQGTQATVSS”, the “polyreactivity (PSR sort gate)” value is on record as “low polyreactivity”.

Turning to “QVQLQESGGGLVLAGGSLRLSCAASGNIFVYSYMGWYRQAPGKEREFVAAIGAGSTTYYADSVSRFTISRDNAKNTVYLQMNSLKPEDTAVYYCNAEITVNDDDYWGQGTQVTVSS”, the “polyreactivity (PSR sort gate)” value is “low polyreactivity”.

On to “QVQLQESGGGLVLAGGSLRLSCSASGNISFYGSMGWYRQAPGKESEFVATIDPGTNTNYADSVKDRFTISRDNAKNTVYLQMNSLKPEDTAVYYCAVEAGSDWPYRYWGQGTQVTVSS”, for which the “polyreactivity (PSR sort gate)” value is given as “low polyreactivity”.

As to “QVQLQESGGGLVLAGGSLRLSCSASGNNSVYGSMGWYRQAPGKEREFVATIDPGTNTNYADSVKDRFTISRDNAKNTVYLQMNSLKPEDTAVYYCAVEAGSDWPYRYWGQGTQVTVSS”, the “polyreactivity (PSR sort gate)” value was “low polyreactivity”.
